Here are results for one substance from paper PMC3638900.

This test addresses HB36.4 I58E displayed on the yeast surface. Briefly: flow cytometry on cells.

Regarding “A/Vietnam/1203/2004 (H5N1) hemagglutinin, biotinylated (natural protein)”, the net change in specificity (H1 over H5) against HB36.4 was > 30 fold.
